The target in experiment [1] is Mycobacterium tuberculosis open-gate 20S proteasome core particle (20SOG CP) (Mycobacterium tuberculosis) (UniProt P9WHU1). Briefly: negative-stain EM; 2 M equivalents of Mpa hexamer, 3 M equivalents of Pup and 1 M equivalent of 20SOG CP with 3 mM ATP on ice for 40 min; 2D class averages of side views, capped versus uncapped CPs counted.
Experiment [2] has the same target. Briefly: negative-stain EM; 2 M equivalents of Mpa hexamer, 3 M equivalents of Pup and 1 M equivalent of 20SOG CP with 3 mM ADP on ice for 40 min; 2D class averages of side views, capped versus uncapped CPs counted.

The results in this text go back to paper PMC8142254, “The mycobacterial proteasomal ATPase Mpa forms a gapped ring to engage the 20S proteasome” (The Journal of Biological Chemistry, 2021).

Sequence of Mycobacterium tuberculosis open-gate 20S proteasome core particle (20SOG CP) (Mycobacterium tuberculosis) (P9WHU1 whole entry, chain 1 of 2): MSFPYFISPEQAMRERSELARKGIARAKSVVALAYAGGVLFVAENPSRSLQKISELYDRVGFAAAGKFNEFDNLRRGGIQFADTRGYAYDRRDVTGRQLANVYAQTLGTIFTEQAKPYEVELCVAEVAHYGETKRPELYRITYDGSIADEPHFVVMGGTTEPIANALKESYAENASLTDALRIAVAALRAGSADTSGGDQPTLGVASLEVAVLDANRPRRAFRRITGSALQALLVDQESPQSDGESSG
Sequence of Mycobacterium tuberculosis open-gate 20S proteasome core particle (20SOG CP) (Mycobacterium tuberculosis) (P9WHT9 58-291, chain 2 of 2, further chain): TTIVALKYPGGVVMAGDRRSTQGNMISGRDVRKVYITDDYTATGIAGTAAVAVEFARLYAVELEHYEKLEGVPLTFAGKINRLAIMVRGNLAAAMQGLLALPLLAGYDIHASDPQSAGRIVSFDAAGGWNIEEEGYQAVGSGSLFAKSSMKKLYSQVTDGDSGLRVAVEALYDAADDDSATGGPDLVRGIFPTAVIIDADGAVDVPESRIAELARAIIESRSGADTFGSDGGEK

B1: Mycobacterium tuberculosis proteasomal ATPase Mpa, full-length (1–609) (enzyme)
chain: MGESERSEAFGIPRDSPLSSGDAAELEQLRREAAVLREQLENAVGSHAPTRSARDIHQLEARIDSLAARNSKLMETLKEARQQLLALREEVDRLGQPPSGYGVLLATHDDDTVDVFTSGRKMRLTCSPNIDAASLKKGQTVRLNEALTVVEAGTFEAVGEISTLREILADGHRALVVGHADEERVVWLADPLIAEDLPDGLPEALNDDTRPRKLRPGDSLLVDTKAGYAFERIPKAEVEDLVLEEVPDVSYADIGGLSRQIEQIRDAVELPFLHKELYREYSLRPPKGVLLYGPPGCGKTLIAKAVANSLAKKMAEVRGDDAHEAKSYFLNIKGPELLNKFVGETERHIRLIFQRAREKASEGTPVIVFFDEMDSIFRTRGTGVSSDVETTVVPQLLSEIDGVEGLENVIVIGASNREDMIDPAILRPGRLDVKIKIERPDAEAAQDIYSKYLTEFLPVHADDLAEFDGDRSACIKAMIEKVVDRMYAEIDDNRFLEVTYANGDKEVMYFKDFNSGAMIQNVVDRAKKNAIKSVLETGQPGLRIQHLLDSIVDEFAENEDLPNTTNPDDWARISGKKGERIVYIRTLVTGKSSSASRAIDTESNLGQYL
notes: Mpa (mycobacterial proteasome ATPase), Mycobacterium tuberculosis, full-length, residues 1-609; Homohexamer; In the cryo-EM model the coiled-coil domains and two of the six AAA domains are not resolved; also called mycobacterial proteasome ATPase; WT Mpa
For the molecule B1, the percent of 20SOG CPs bound to Mpa hexamer in experiment [1] was 37%; in experiment [2], 8%.
